According to patent US20230340152A1 (published 2023):
Changes are numbered by the printed parent chain. Names and notes keep the numbering of the source.

B1: 73combo5 (G10+GRVE+HPT) (antibody, V domains shown)
VH: EVQLLESGGGLVQPGGSLRLSCAASGFTFSSYAYSWVRQAPGKGLEWVSAISGSWGRTYYADSVKGRFTISRDNSKNTLYLQMNSLRAEDTAVYYCARLGYGRVDEWGRGTLVTVSS
VL: QSVLTQPPSASGTPGQRVTISCSGSLSNIGRNDVNWYQQLPGTAPKLLIYLNNQRLGGVPDRFSGSKSGTSASLAISGLQSEDEADYYCATWDDSHPGWTFGGGTKLTVL
notes: IgG1-TM format; also called clone 10 combo5
B2: 73combo2 (C2+GRVE+HPT) (antibody, V domains shown)
VH: B1 VH with A50L, S52W, R57S
VL: B1 VL with D33P, N52D, Q54L
notes: IgG1-TM format; also called clone 10 combo2
B3: C2 (IgG1-TM) (antibody, V domains shown)
VH: B1 VH with A50L, S52W, R57S, G102S, R103T, V104I, E106M
VL: B1 VL with D33P, N52D, Q54L, H96L, P97K, T100L
notes: IgG1-TM format; also called clone 10 C2
B4: G10 (IgG1-TM) (antibody, V domains shown)
VH: B1 VH with G102S, R103T, V104I, E106L
VL: B1 VL with H96L, P97K, T100L
notes: IgG1-TM format; also called clone 10 G10
B5: CD730004 (antibody, V domains shown)
VH: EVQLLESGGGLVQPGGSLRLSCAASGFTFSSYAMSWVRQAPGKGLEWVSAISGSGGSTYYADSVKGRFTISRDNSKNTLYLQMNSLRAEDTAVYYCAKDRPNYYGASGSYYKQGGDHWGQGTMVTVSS
VL: NFMLTQPHSVSESPGQTVTISCTRSSGSIASKYVQWYQKRPGSSPTTVIYEDTQRPSGVPDRFSGSIDISSNSASLTISGLRTEDEADYYCQSYDSTNWVFGGGTKVTVL
notes: IgG1-TM format; also called CD730004 antibody
B6: CD730047 (antibody, V domains shown)
VH: EVQLVQSGGGVVQPGRSLRLSCAASGFTFSSYGMHWVRQAPGKGLEWVAVISYDGSIKYYADSVKGRFAISRDNAKNTLYLQMNSLRREDTAMYYCASGLTGVAGALGVWGRGTLVTVSS
VL: QSVLTQPPSASGAPGQRVTISCSGSSSNIGSNTVNWYQRLPGAAPQLLIYNNDQRPSGIPDRFSGSKSGTSGSLVISGLQSEDEADYYCAAWDDSLSGNVFGTGTKVTVL
notes: IgG1-TM format; also called CD730047 antibody
B7: CD730002SGMY CDRL2 T52S (Fab, V domains shown)
VH: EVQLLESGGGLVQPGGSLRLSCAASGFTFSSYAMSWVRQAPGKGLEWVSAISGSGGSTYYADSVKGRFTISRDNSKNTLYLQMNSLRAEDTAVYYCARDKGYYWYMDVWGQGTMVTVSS
VL: QSVLTQPPSVSVSPGQTASITCSGDKVGDKYASWYQQKPGQSPVLVIYEDSKRPSGIPERFSGSNSGNTATLTISGTQAMDEADYYCQAWDTSFWVFGGGTKLTVLL
notes: format not clearly stated
B8: CD730002SGMY CDRL2 R54Y (Fab, V domains shown)
VH: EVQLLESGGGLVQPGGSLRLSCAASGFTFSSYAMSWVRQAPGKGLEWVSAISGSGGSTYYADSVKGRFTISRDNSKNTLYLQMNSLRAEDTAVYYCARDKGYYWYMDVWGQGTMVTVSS
VL: B7 VL with S51T, R53Y, L107V
notes: format not clearly stated
B9: CD730002SGMY CDRH2 G65R (Fab, V domains shown)
VH: EVQLLESGGGLVQPGGSLRLSCAASGFTFSSYAMSWVRQAPGKGLEWVSAISGSGGSTYYADSVKRRFTISRDNSKNTLYLQMNSLRAEDTAVYYCARDKGYYWYMDVWGQGTMVTVSS
VL: QSVLTQPPSVSVSPGQTASITCSGDKVGDKYASWYQQKPGQSPVLVIYEDTKRPSGIPERFSGSNSGNTATLTISGTQAMDEADYYCQAWDTSFWVFGGGTKLTVL
notes: format in the FACS read-out not clearly stated
B10: CD730002SGMY CDRH2 T57P (Fab, V domains shown)
VH: B9 VH with T58P, R66G
VL: B9 VL
notes: as for B9
B11: CD730002SGMY CDRL2 P55H (Fab, V domains shown)
VH: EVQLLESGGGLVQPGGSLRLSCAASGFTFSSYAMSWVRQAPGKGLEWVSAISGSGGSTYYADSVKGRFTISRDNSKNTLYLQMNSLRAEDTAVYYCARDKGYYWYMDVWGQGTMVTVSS
VL: B9 VL with P54H
notes: format not clearly stated
B12: CD730002SGMY CDRH2 A60G (Fab, V domains shown)
VH: B9 VH with A61G, R66G
VL: B9 VL
notes: as for B9
B13: CD730002SGMY CDRH1 Y32V (Fab, V domains shown)
VH: B9 VH with Y32V, R66G
VL: B9 VL
notes: as for B9
B14: CD730002SGMY CDRH1 M34R (Fab, V domains shown)
VH: B9 VH with M34R, R66G
VL: B9 VL
notes: as for B9
B15: CD730010 GL9 VH A50L Fab (Fab, name in Kabat numbering, V domains shown)
VH: B1 VH with Y34M, A50L, W55G, R57S, G102S, R103T, V104I, E106Y
VL: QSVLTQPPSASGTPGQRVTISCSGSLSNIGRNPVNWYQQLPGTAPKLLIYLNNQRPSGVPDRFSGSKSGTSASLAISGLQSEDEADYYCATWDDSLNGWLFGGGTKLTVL
notes: Bacterial Fab, normalized supernatant
B16: CD730010 GL9 VH G54N Fab (Fab, name in Kabat numbering, V domains shown)
VH: B1 VH with Y34M, W55N, R57S, G102S, R103T, V104I, E106Y
VL: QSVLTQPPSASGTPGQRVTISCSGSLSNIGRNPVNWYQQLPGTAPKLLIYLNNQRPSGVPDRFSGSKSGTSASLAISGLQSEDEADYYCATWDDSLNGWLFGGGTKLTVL
notes: as for B15
B17: CD730010 GL9 VH S52W Fab (Fab, name in Kabat numbering, V domains shown)
VH: B1 VH with Y34M, S52W, W55G, R57S, G102S, R103T, V104I, E106Y
VL: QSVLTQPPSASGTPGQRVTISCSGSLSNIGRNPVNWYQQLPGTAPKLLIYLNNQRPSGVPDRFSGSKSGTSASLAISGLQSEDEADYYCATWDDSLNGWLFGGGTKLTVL
notes: as for B15
B18: CD730010 GL9 VH S56R Fab (Fab, name in Kabat numbering, V domains shown)
VH: B1 VH with Y34M, W55G, G102S, R103T, V104I, E106Y
VL: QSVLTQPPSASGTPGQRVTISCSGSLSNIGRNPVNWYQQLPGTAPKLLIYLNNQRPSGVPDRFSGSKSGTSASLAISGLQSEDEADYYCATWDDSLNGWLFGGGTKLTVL
notes: as for B15
B19: CD730010 GL9 VH M34Y Fab (Fab, name in Kabat numbering, V domains shown)
VH: B1 VH with W55G, R57S, G102S, R103T, V104I, E106Y
VL: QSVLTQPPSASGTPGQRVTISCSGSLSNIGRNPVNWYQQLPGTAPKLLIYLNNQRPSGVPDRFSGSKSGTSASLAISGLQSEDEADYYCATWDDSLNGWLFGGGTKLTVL
notes: as for B15
B20: CD730010 GL9 VH G54W Fab (Fab, name in Kabat numbering, V domains shown)
VH: B1 VH with Y34M, R57S, G102S, R103T, V104I, E106Y
VL: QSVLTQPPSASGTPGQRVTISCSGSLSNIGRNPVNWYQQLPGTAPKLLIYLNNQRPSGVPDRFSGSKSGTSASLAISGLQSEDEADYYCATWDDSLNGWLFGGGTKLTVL
notes: as for B15
B21: CD730010 GL9 VH M34I Fab (Fab, name in Kabat numbering, V domains shown)
VH: B1 VH with Y34I, W55G, R57S, G102S, R103T, V104I, E106Y
VL: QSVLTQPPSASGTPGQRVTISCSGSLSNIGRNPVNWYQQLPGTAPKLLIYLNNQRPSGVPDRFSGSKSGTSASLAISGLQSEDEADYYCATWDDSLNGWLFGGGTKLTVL
notes: as for B15
B22: CD730010 GL9 VH S35H Fab (Fab, name in Kabat numbering, V domains shown)
VH: B1 VH with Y34M, S35H, W55G, R57S, G102S, R103T, V104I, E106Y
VL: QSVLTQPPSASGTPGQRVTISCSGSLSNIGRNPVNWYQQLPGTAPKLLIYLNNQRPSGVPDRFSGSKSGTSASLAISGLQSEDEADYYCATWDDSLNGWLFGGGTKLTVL
notes: as for B15

biological target: T1, Cynomolgus CD73 on MK-1 cells (cynomolgus, UniProt A0A2K5V5U7 27-549); assay: flow cytometry on cells
T1 construct: whole, on cells; also called MK-1 (cyno)
T1 sequence: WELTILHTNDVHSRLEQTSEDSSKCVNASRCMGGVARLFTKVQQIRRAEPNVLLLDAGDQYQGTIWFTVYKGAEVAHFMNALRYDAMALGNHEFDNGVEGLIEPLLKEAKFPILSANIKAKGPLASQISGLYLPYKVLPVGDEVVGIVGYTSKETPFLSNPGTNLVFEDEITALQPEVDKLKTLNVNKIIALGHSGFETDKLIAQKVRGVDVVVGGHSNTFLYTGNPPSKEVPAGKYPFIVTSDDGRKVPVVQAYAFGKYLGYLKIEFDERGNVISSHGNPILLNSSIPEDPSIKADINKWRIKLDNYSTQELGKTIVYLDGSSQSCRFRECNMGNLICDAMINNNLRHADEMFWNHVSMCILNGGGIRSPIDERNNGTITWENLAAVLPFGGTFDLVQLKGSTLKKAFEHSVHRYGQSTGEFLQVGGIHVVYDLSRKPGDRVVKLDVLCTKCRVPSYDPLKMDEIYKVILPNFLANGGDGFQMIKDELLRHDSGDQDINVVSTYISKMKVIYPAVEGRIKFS

Row | Binder | Kd [nM]
1 | B1 | 0.078
2 | B2 | 0.074
3 | B3 | 0.105
4 | B4 | 0.258

biological target: T2, Murine CD73 on cells (4T1, Jurkat mCD73 knock-in) (murine, UniProt Q61503 29-551); assay: flow cytometry on cells
T2 construct: whole, on cells; also called 4T1 (murine)
T2 sequence (looked up): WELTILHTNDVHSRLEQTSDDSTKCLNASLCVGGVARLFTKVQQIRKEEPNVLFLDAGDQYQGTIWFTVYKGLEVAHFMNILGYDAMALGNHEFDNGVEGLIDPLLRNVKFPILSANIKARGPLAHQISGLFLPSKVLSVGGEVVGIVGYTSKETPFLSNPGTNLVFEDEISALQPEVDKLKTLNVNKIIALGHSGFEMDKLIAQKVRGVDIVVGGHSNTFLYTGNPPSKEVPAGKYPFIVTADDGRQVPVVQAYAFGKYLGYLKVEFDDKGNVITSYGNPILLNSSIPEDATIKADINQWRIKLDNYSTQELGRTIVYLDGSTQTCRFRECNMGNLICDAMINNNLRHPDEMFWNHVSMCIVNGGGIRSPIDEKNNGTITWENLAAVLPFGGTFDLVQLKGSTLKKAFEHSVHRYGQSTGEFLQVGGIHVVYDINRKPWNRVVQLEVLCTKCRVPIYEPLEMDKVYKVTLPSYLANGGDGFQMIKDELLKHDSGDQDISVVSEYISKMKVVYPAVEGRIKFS

Row | Binder | Kd [nM]
5 | B1 | 0.205
6 | B2 | 0.064
7 | B3 | 0.067
8 | B4 | 0.259

biological target: T3, Human CD73 on cells (MDA-MB-231, Jurkat CD73 knock-in, NCI-H322) (human, UniProt P21589 27-549); assay: flow cytometry on cells
T3 construct: GPI-anchored native protein; also called native human CD73
T3 sequence: T1 sequence with T199M, A350T, I466V

Row | Binder | Kd [nM]
9 | B1 | 0.169
10 | B2 | 0.166
11 | B3 | 0.158
12 | B4 | 0.354

biological target: T4, Murine CD73 ECD (murine, UniProt Q61503 29-551, limits assumed); assay: binding assay, format not stated
T4 construct: extracellular domain; In-house recombinant ECD; also called murine CD73 extracellular domain; muCD73
T4 sequence (looked up): T2 sequence (looked up)

Row | Binder | 1/EC50 [nM⁻¹]
13 | B5 | 0.00023

biological target: T5, Human CD73 ECD (human, UniProt P21589 27-549); assay: binding assay, format not stated
T5 construct: Biotinylated in some assays; also called human CD73 extracellular domain; huCD73
T5 sequence: T1 sequence with T199M, A350T, I466V

Row | Binder | 1/EC50 [nM⁻¹]
14 | B6 | 0

biological target: T5, Human CD73 ECD; assay: SPR (Proteon)

Row | Binder | Kd [nM]
15 | B1 | 0.007
16 | B2 | 0.005
17 | B3 | 0.023
18 | B4 | 0.009

biological target: T3, Human CD73 on cells (MDA-MB-231, Jurkat …); assay: FACS on MDA-MB-231 cells, vs CD730002SGMY

Row | Binder | FACS signal, fold improvement over parental antibody [fold]
19 | B7 | 1.5
20 | B8 | 1.2
21 | B9 | 1.3
22 | B10 | 1.5
23 | B11 | 1.5
24 | B12 | 1.3
25 | B13 | 1.2
26 | B14 | 1.1

biological target: T5, Human CD73 ECD; assay: cell-based or functional assay

Row | Binder | Enzyme Inhibition, rCD73, 1/EC50 (nM) [nM⁻¹]
27 | B6 | 0.001

biological target: T3, Human CD73 on cells (MDA-MB-231, Jurkat …); assay: cell-based or functional assay

Row | Binder | Enzyme Inhibition, MDA-MB-231, 1/EC50 (nM) [nM⁻¹] | Internalization, MDA-MB-231, 1/EC50 (nM) [nM⁻¹]
28 | B6 | 0.027 | 0.001
29 | B5 | 0.06 | 0

biological target: T4, Murine CD73 ECD; assay: direct ELISA, normalized Fab supernatant, vs CD730010 GL9

Row | Binder | ELISA signal, fold improvement over parental antibody [fold]
30 | B15 | 3
31 | B16 | 7.1
32 | B17 | 4.4
33 | B18 | 4.9
34 | B19 | 2.9
35 | B20 | 3.7
36 | B21 | 1.1
37 | B22 | 1.1

biological target: T5, Human CD73 ECD; assay: as above

Row | Binder | ELISA signal, fold improvement over parental antibody [fold]
38 | B15 | 4.2
39 | B16 | 8.9
40 | B17 | 8.9
41 | B18 | 5.6
42 | B19 | 3.9
43 | B20 | 4.2
44 | B21 | 1.5
45 | B22 | 1.8
